Experiment [1] has as its target mCherry-FKBP-Ubc9 (UniProt P63279).
Experiment [2] shares this target. The source holds these as a separate data set.

In the case of “FKBP-EGFP-RanGAP* (from UniProt P46060 398-587)”, the KM of SUMOylation of RanGAP* by E2 (Ubc9), without scaffolds in experiment [1] worked out at 150 µM.

With “FKBP-RanGAP (from UniProt P46060 398-587)”, the KM of SUMOylation of RanGAP by E2 (Ubc9), without scaffolds in experiment [2] is 2.5 µM.

Source of the values: paper PMC8635274.
